Patent US20250236653A1 (ONKO INNATE, published 2025)
Positions count from the first letter of the chain named. Where “and” joins values, the source holds several entries; their conditions need not be identical. Equal values may be shown once. Values belong to the binder of their own block, whether it stands above or below them.

Assays:
[1] = biological target: human IL-12 receptor (human, UniProt P42701 24-662; Q99665 24-862); assay: cell-based or functional assay
[2] = biological target: T1, human OX40 (human, UniProt P43489 29-277); assay: cell-based or functional assay
T1 sequence (looked up): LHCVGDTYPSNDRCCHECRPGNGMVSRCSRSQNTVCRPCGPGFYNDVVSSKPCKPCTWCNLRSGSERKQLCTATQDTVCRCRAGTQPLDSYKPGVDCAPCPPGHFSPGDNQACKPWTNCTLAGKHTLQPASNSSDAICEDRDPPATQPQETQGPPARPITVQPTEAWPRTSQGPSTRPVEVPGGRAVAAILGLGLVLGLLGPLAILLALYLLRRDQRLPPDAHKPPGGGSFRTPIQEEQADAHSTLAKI

[3] = biological target: T1, human OX40; assay: flow cytometry on hOX40-Jurkat-NF-κB cells
Method: Stained hOX40-Jurkat-NF-κB and cOX40-Jurkat-NF-κB cells were analyzed by flow cytometry using a CytoFLEX (Beckman Coulter), the results of which are depicted in FIGS. 78 and 79, respectively, and summarized in FIG. 80.
Binding of each of the sequence optimized IL-12 ABD fusion proteins to hOX40-Jurkat-NF-κB cells was performed as described in Example 16, the results of which are depicted in FIG. 87 and summarized in FIG. 88.

Sequence of human IL-12 receptor (Q99665 24-862 limits assumed, chain 2 of 2, other chains not shown): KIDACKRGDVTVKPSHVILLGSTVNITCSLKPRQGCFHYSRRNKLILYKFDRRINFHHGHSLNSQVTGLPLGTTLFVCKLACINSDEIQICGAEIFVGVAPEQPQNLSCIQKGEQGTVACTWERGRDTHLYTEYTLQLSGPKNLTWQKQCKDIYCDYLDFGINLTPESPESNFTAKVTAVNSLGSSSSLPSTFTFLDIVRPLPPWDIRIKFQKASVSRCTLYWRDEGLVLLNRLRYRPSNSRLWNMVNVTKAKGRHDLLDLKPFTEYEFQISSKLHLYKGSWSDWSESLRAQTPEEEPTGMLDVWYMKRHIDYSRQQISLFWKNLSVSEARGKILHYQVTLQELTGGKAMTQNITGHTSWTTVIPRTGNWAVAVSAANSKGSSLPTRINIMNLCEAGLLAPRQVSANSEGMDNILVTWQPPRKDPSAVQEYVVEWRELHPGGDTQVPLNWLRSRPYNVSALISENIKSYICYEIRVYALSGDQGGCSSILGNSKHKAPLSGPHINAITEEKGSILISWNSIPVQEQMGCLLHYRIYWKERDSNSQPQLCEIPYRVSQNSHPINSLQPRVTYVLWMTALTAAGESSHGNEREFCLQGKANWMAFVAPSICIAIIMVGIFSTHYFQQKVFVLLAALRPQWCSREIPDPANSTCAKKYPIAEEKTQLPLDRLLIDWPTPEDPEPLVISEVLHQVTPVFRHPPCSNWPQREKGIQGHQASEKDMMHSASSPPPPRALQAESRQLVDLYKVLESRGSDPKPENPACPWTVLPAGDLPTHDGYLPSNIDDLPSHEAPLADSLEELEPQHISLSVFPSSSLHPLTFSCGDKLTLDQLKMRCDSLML

B1: IL-12 Fc mut9 (Fc fusion)
chain: RNLPVATPDPGMFPCLHHSQNLLRAVSNMLQKARQTLEFPPCTSEEIDHEDITKDKTSTVEACLPLELTKNESCLNSRETSFITNGSCLASRKTSFMMALCLSSIYEDLKMYQVEFKTMNAKLLMDPKRQIFLDQNMLAVIDELMQALNFNSETVPQKSSLEEPDFYATKIKLCILLHAFRIRAVTIDRVMSYLNAS
SEAP of CCR8-HEK-Blue IL-12 reporter cells (OD 650 nm), EC50 [1]: 12.5 nM

B2: commercially available recombinant IL-12 (rIL-12, Miltenyi) (ligand)
chain 1: B1 chain with P40Y, A168K
chain 2: IWELKKDVYVVELDWYPDAPGEMVVLTCDTPEEDGITWTLDQSSEVLGSGKTLTIQVKEFGDAGQYTCHKGGEVLSHSLLLLHKKEDGIWSTDILKDQKEPKNKTFLRCEAKNYSGRFTCWWLTTISTDLTFSVKSSRGSSDPQGVTCGAATLSAERVRGDNKEYEYSVECQEDSACPAAEESLPIEVMVDAVHKLKYENYTSSFFIRDIIKPDPPKNLQLKPLKNSRQVEVSWEYPDTWSTPHSYFSLTFCVQVQGKSKREKKDRVFTDKTSATVICRKNASISVRAQDRYYSSSWSEWASVPCS
SEAP of CCR8-HEK-Blue IL-12 reporter cells (OD 650 nm), EC50 [1]: 0.17 nM

B5: mono-mut23-20E5_V5 (Fc fusion)
chain: IWELKKDVYVVELDWYPDAPGEMVVLTCDTPEEDGITWTLDQSSEVLGSGKTLTIQVKEFGDAGQYTCHKGGEVLSHSLLLLHKKEDGIWSTDILKDQKEPKNKTFLRCEAKNYSGRFTCWWLTTISTDLTFSVKSSRGSSDPQGVTCGAATLSAERVRGDNKEYEYSVECQEDSACPAAEESLPIEVMVDAVHKLKYENYTSSFFIRDIIKPDPPKNLQLKPLKNSRQVEVSWEYPDTWSTPHSYFSLTFSVQVQGKSKREKKDRVFTDKTSATVICRKNASISVRAQDRYYSSSWSEWASVPCSGGGGSGGGGSGGGGSGGGGSGGGGSRNLPVATPDPGMFPCLHHSQNLLRAVSNMLQKARQTLEFSPCTSEEIDHEDITKDKTSTVEACLPLELTKNESCLNSRETSFITNGSCLASRKTSFMMALCLSSIYEDLKMYQVEFKTMNAKLLMDPKRQIFLDQNMLAVIDELMQALNFNSETVPQKSSLEEPDFYKTAIKLCILLHAFRIRAVTIDRVMSYLNASGGGGSGGGGSEPKSSDKTHTCPPCPAPEFEGGPSVFLFPPKPKDTLMISRTPEVTCVVVDVSHEDPEVKFNWYVDGVEVHNAKTKPREEQYNSTYRVVSVLTVLHQDWLNGKEYKCKVSNKALPASIEKTISKAKGQPREPQVCTLPPSRDELTKNQVSLSCAVKGFYPSDIAVEWESNGQPENNYKTTPPVLDSDGSFFLVSKLTVDKSRWQQGNVFSCSVMHEALHNHYTQKSLSLSPG
heavy: QVQLVQSGAEVKKPGASVKVSCKASGYTFTSYVMHWVRQAPGQRLEWIGYINPYNAGTKYNEKFKGRATLTSDKSASTAYMELSSLRSEDTAVYYCANYYGSSLSMDYWGQGTLVTVSSASTKGPSVFPLAPSSKSTSGGTAALGCLVKDYFPEPVTVSWNSGALTSGVHTFPAVLQSSGLYSLSSVVTVPSSSLGTQTYICNVNHKPSNTKVDKKVEPKSCDKTHTCPPCPAPEFEGGPSVFLFPPKPKDTLMISRTPEVTCVVVDVSHEDPEVKFNWYVDGVEVHNAKTKPREEQYNSTYRVVSVLTVLHQDWLNGKEYKCKVSNKALPASIEKTISKAKGQPREPQVYTLPPCRDELTKNQVSLWCLVKGFYPSDIAVEWESNGQPENNYKTTPPVLDSDGSFFLYSKLTVDKSRWQQGNVFSCSVMHEALHNHYTQKSLSLSPG
light: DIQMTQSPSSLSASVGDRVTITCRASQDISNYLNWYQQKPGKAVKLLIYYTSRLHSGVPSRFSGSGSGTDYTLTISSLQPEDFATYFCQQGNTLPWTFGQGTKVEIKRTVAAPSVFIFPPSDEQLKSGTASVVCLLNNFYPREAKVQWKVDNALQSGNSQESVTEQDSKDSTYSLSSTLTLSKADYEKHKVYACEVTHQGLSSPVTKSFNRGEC
binding result [3]: binds

Now from value to binder:

IFNγ release by conventional CD4+ T cells (AlphaLISA), EC50, two PBMC donors [2]: 0.0277 nM and 0.0195 nM
IFNγ release by induced Treg cells (AlphaLISA), EC50, two PBMC donors [2]: 0.0057 nM and 0.0138 nM
B3: mono-mut23-20E5_V4 (Fc fusion)
chain: B5 chain
heavy: B5 heavy with A56E
light: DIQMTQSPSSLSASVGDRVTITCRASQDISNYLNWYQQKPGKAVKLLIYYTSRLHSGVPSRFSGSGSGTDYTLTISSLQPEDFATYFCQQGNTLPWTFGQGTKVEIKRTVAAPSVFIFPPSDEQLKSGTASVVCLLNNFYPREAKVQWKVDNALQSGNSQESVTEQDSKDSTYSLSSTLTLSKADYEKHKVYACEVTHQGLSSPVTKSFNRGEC

EC50 [3]: 645 nM
B4: mono-mut23-12H3_V6 (Fc fusion)
chain: B5 chain
heavy: QVQLVQSGAEVKKPGSSVKVSCKASGYTFKDYTMHWVRQAPGQGLEWIGGIYPNNGGSTYNQNFKDRVTLTADKSTSTAYMELSSLRSEDTAVYYCARLGYHGPHLDFDVWGQGTTVTVSSASTKGPSVFPLAPSSKSTSGGTAALGCLVKDYFPEPVTVSWNSGALTSGVHTFPAVLQSSGLYSLSSVVTVPSSSLGTQTYICNVNHKPSNTKVDKKVEPKSCDKTHTCPPCPAPEFEGGPSVFLFPPKPKDTLMISRTPEVTCVVVDVSHEDPEVKFNWYVDGVEVHNAKTKPREEQYNSTYRVVSVLTVLHQDWLNGKEYKCKVSNKALPASIEKTISKAKGQPREPQVYTLPPCRDELTKNQVSLWCLVKGFYPSDIAVEWESNGQPENNYKTTPPVLDSDGSFFLYSKLTVDKSRWQQGNVFSCSVMHEALHNHYTQKSLSLSPG
light: DIQMTQSPSSLSASVGDRVTITCKASQDVGAAVAWYQQKPGKAPKLLIYWASTRHTGVPSRFSGSGSGTDFTLTISSLQPEDFATYYCQQYINYPLTFGGGTKVEIKRTVAAPSVFIFPPSDEQLKSGTASVVCLLNNFYPREAKVQWKVDNALQSGNSQESVTEQDSKDSTYSLSSTLTLSKADYEKHKVYACEVTHQGLSSPVTKSFNRGEC

EC50 [3]: 113 nM
B6: mono-mut23-12H3_V5 (Fc fusion)
chain: B5 chain
heavy: B4 heavy with G56A, L99M
light: B4 light

IFNγ in the supernatant of activated/expanded human T cells (AlphaLISA), EC50 [1]: 0.0193 nM
B7: commercially available recombinant mouse IL-12 (rmIL-12, BioLegend) (ligand)
chain 1: RVIPVSGPARCLSQSRNLLKTTDDMVKTAREKLKHYSCTAEDIDHEDITRDQTSTLKTCLPLELHKNESCLATRETSSTTRGSCLPPQKTSLMMTLCLGSIYEDLKMYQTEFQAINAALQNHNHQQIILDKGMLVAIDELMQSLNHNGETLRQKPPVGEADPYRVKMKLCILLHAFSTRVVTINRVMGYLSSA
chain 2: MWELEKDVYVVEVDWTPDAPGETVNLTCDTPEEDDITWTSDQRHGVIGSGKTLTITVKEFLDAGQYTCHKGGETLSHSHLLLHKKENGIWSTEILKNFKNKTFLKCEAPNYSGRFTCSWLVQRNMDLKFNIKSSSSSPDSRAVTCGMASLSAEKVTLDQRDYEKYSVSCQEDVTCPTAEETLPIELALEARQQNKYENYSTSFFIRDIIKPDPPKNLQMKPLKNSQVEVSWEYPDSWSTPHSYFSLKFFVRIQRKKEKMKETEEGCNQKGAFLVEKTSTEVQCKGGNVCVQAQDRYYNSSCSKWACVPCRVRS
